Data taken from patent publication US20190367592A1 (AC IMMUNE, published 2019).
Where a chain is given by its changes, count along the chain named. Names and notes keep the numbering of the source. Values belong to the binder of their own block, whether it stands above or below them.

Assays:
[1] = target: T1, recombinant human Tau monomer, 2N4R isoform (amino acids 2-441) (human, UniProt P10636-8 2-441); experiment: SPR single-cycle, human Fab capture kit, Tau monomer analyte; mean ± range, n=2
T1 construct: range 2-441; N-terminal His-tag removed with TEV protease; also called monomeric Tau
T1 sequence (P10636 other isoform, or with tags, fused parts or gaps limits assumed): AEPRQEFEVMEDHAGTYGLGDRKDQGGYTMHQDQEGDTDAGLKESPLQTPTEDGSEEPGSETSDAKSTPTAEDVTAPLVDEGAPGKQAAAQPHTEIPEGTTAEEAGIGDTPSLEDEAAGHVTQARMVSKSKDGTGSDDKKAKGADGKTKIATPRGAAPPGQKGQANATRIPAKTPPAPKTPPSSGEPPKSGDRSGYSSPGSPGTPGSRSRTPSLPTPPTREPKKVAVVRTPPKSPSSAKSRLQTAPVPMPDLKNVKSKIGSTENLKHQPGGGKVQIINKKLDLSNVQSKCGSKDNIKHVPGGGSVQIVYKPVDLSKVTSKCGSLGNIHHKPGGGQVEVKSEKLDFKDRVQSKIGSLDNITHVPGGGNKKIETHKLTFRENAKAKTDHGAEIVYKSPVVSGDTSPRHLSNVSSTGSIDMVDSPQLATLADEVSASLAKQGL
Protocol: Affinity of the humanized antibody variants was measured at 25° C. using a Biacore T200 instrument, the GE Biacore human FAb capture kit, and a CM5 Series S chip. Antibodies were diluted to 1 μg/ml in HBSP (10 mM HEPES pH7.4, 150 mM NaCl, 0.05% Tween 20) and captured at a flow rate of 10 μl/min for 180 seconds. Kinetic data were collected for human Tau monomer injected at 1.2, 3.7, 11, 33 and 100 nM in HBSP using the Single Cycle Kinetics methodology and a flow rate of 30 μl/min. Each concentration of Tau monomer was injected for a period of 3 minutes and dissociation was monitored for ten minutes. Between cycles, the surface was regenerated with two sequential one-minute injections of 10 mM glycine pH2.1. Data was fit to a 1:1 binding model using BIAEvaluation software. Each antibody was analyzed twice within the experiment; data in Table 22 are shown as mean±range.

[2] = target: T1, recombinant human Tau monomer, 2N4R …; experiment: SPR; Normalized Rmax post-stress (2 weeks 40 C) / pre-stress
Summary of the method: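 SPR read-out: Rmax divided by captured-IgG Ligand Level gives Normalized Rmax; post-stress (40° C., 2 weeks) over pre-stress (~4° C.) value is the Stability Index. Tau analyte at 0, 26.5, 265 nM, 180 s association, 300 s dissociation, multi-cycle kinetics, 1:1 model.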

[3] = target: T1, recombinant human Tau monomer, 2N4R …; experiment: SPR, captured IgG, Tau monomer analyte, 1:1 model; fit-quality column: -
Protocol: Briefly, IgGs in 1 mL culuture were captured using tip columns that were custom packed with 20 μL MabSelect SuRe resin (Glygen Corp & GE Healthcare). After washing with 1×PBS pH 7.4, IgGs were eluted into 160 μL of 50 mM phosphoric acid pH 3 and neutralized with 12 μL of 20×PBS pH 11. MabSelect SuRe tip columns were stripped in 0.1 M NaOH and regenerated with 1×PBS pH 7.4 for consecutive use of up to 15 times. Purified antibodies in 96-well format were normalized to 0.1 mg/ml using a Hamilton Star liquid handling robot. The “pre-stress” samples were kept at approximately 4° C. and the “post-stress” samples were incubated at 40° C. for two weeks in a PCR machine. Functional stability of the variants was compared by running surface plasmon resonance kinetics experiments with the “pre-stress” and “post-stress” antibody preps. The antibodies were assessed using a human antibody capture CM5 Series S chip generated using the GE Biacore human IgG capture kit and a Biacore T200 instrument. Antibodies diluted to 2 μg/ml were immobilized using a 15 second injection time and 10 μl/min flow rate. Binding to Tau monomer at 0 nM, 26.5 nM and 265 nM, at 25° C., using a flow rate of 40 μl/min, was monitored for a 180 second association phase followed by a 300 second dissociation phase. Samples were run in 10 mM HEPES pH7.4, 150 mM NaCl, 0.05% Tween 20 (HBSP) using a multi-cycle kinetics format. Data was analyzed using BIAevaluation software, fitting a 1:1 binding model. The resulting affinity (KD) values are shown in FIG. 8A-D. A Stability Index was also calculated, using the rationale that affinity-compromised antibodies (due for example to deamidation of key residues) are expected to contribute equally to the IgG capture level (“Ligand Level”) but to contribute less to the measured Tau binding, and that this would be reflected in the experimentally derived value for Rmax. To account for variations in the amount of each antibody captured, Rmax was normalized for the antibody capture level (as measured by “Ligand Level”, Response Units immobilized during antibody capture). Thus Normalized Rmax is calculated as the experimental Rmax (units=RU) divided by the “Ligand Level” (Evaluation output representing the RU captured during the hIgG capture step, units=RU), and Stability Index is calculated here as Normalized Rmax (post-stress) divided by Normalized Rmax (pre-stress).

Stability Index [2]: 78%
Kd [3]: 36.1 nM
B2: hu37D3-H9.v5.4 (antibody, V domains shown)
VH: EVQLVESGGGLVQPGGSLRLSCAASGLIFRSYGMSWVRQAPGKGLEWVATINSGGTYTYYPDSVKGRFTISRDNSKNTLYLQMNSLRAEDTAVYYCANSYSGAMDYWGQGTLVTVSS
VL: EDVLTQTPLSLPVTPGQPASISCRSSQSIVHSQGNTYFEWYLQKPGQSPQLLIYKVSNRFSGVPDRFSGSGSGTDFTLKISRVEAEDVGVYYCFQGSLVPWTFGQGTKVEIK

Stability Index [2]: 533%
Kd [3]: 0.8 nM
B7: hu37D3-H9.v31.4 (antibody, V domains shown)
VH: B2 VH
VL: B2 VL with E1D, Q33N, G34A, N35P

Kd [1]: 5.4 nM
koff [1]: 0.005 s⁻¹
kon [1]: 900000 M⁻¹ s⁻¹
B8: hu37D3.v41 hIgG4.YTE (antibody, V domains shown)
VH: B2 VH
VL: EDQLTQSPSSLSASVGDRVTITCRSSQSIVHSNGQTYFEWYQQKPGKSPKLLIYKVSNRFSGVPSRFSGSGSGTDFTLTISSLQPEDFATYYCFQGSLVPWTFGQGTKVEIKR
notes: hu37D3-H9.v1 with light chain N30Q; also called hu37D3.v41 hIgG4.S228P.YTE

Stability Index [2]: 105%
Kd [3]: 31.4 nM
B9: hu37D3-H9.v30.8 (antibody, V domains shown)
VH: B2 VH
VL: B2 VL with E1D, Q33Y

Stability Index [2]: 75%
Kd [3]: 64.5 nM
B12: hu37D3-H9.v5.5 (antibody, V domains shown)
VH: B2 VH
VL: B2 VL with Q33E

Stability Index [2]: 99%
Kd [3]: 41.6 nM
B13: hu37D3-H9.v31.12 (antibody, V domains shown)
VH: B2 VH
VL: B2 VL with E1D, Q33N, G34A, T36Y

Stability Index [2]: 74%
Kd [3]: 35.6 nM
B14: hu37D3.v28.51 (antibody, V domains shown)
VH: B2 VH
VL: B2 VL with Q33H

Stability Index [2]: 208%
Kd [3]: 0.4 nM
B15: hu37D3.v28.B3 (antibody, V domains shown)
VH: B2 VH
VL: B2 VL with E1D, Y37W

Stability Index [2]: 93%
Kd [3]: 34.9 nM
B16: hu37D3-H9.v30.7 (antibody, V domains shown)
VH: B2 VH
VL: B2 VL with E1D, Q33F

Stability Index [2]: 261%
Kd [3]: 5.5 nM
B18: hu37D3-H9.v31.10 (antibody, V domains shown)
VH: B2 VH
VL: B2 VL with E1D, Q33N, G34A, T36P

Kd [1]: 4.4 nM
koff [1]: 0.003 s⁻¹
kon [1]: 800000 M⁻¹ s⁻¹
B19: hu37D3.v40 hIgG4.YTE (antibody, V domains shown)
VH: B2 VH
VL: B8 VL with G34T, Q35N
notes: hu37D3-H9.v1 with light chain G29T; also called hu37D3.v40 hIgG4.S228P.YTE

Stability Index [2]: 63%
Kd [3]: 36.4 nM
B21: hu37D3-H9.v30.9 (antibody, V domains shown)
VH: B2 VH
VL: B2 VL with E1D, Q33H

Stability Index [2]: 270%
Kd [3]: 19.1 nM
B22: hu37D3-H9.v30.6 (antibody, V domains shown)
VH: B2 VH
VL: B2 VL with E1D, Q33P

Stability Index [2]: 456%
Kd [3]: 1.8 nM
B23: hu37D3.v28.B8 (antibody, V domains shown)
VH: B2 VH
VL: B2 VL with E1D, Q33E, Y37R

More lines, now with the values behind:

B1: hu37D3-H9.v1 hIgG1 (antibody)
heavy: not shown
light: EDQLTQSPSSLSASVGDRVTITCRSSQSIVHSNGNTYFEWYQQKPGKSPKLLIYKVSNRFSGVPSRFSGSGSGTDFTLTISSLQPEDFATYYCFQGSLVPWTFGQGTKVEIKRTVAAPSVFIFPPSDEQLKSGTASVVCLLNNFYPREAKVQWKVDNALQSGNSQESVTEQDSKDSTYSLSSTLTLSKADYEKHKVYACEVTHQGLSSPVTKSFNRGEC
notes: also called hu37D3.v1 hIgG1
Kd [1]: 2.3 nM
koff [1]: 0.001 s⁻¹
kon [1]: 600000 M⁻¹ s⁻¹

B3: hu37D3.v28.A30 (antibody, V domains shown)
VH: B2 VH
VL: B2 VL with E1D, D2V, L4M, Q33N, F38L, L98H
Stability Index [2]: 77%
Kd [3]: 34.4 nM

B4: hu37D3.v39 hIgG4.YTE (antibody, V domains shown)
VH: B2 VH
VL: B8 VL with Q35N, F38L
notes: hu37D3-H9.v1 with light chain F33L; also called hu37D3.v39 hIgG4.S228P.YTE
Kd [1]: 1.9 nM
koff [1]: 0.001 s⁻¹
kon [1]: 600000 M⁻¹ s⁻¹

B5: hu37D3-H9.v5.6 (antibody, V domains shown)
VH: B2 VH
VL: B2 VL with Q33A
Stability Index [2]: 67%
Kd [3]: 36.6 nM

B6: hu37D3.v28.B4 (antibody, V domains shown)
VH: B2 VH
VL: B2 VL with E1D, Y37H
Stability Index [2]: 288%
Kd [3]: 10.5 nM

B10: hu37D3-H9.v31.14 (antibody, V domains shown)
VH: B2 VH
VL: B2 VL with E1D, Q33N, G34A, T36R
Stability Index [2]: 86%
Kd [3]: 35.5 nM

B11: hu37D3-H9.v31.13 (antibody, V domains shown)
VH: B2 VH
VL: B2 VL with E1D, Q33N, G34A, T36N
Stability Index [2]: 83%
Kd [3]: 48.1 nM

B17: hu37D3-H9.v31.1 (antibody, V domains shown)
VH: B2 VH
VL: B2 VL with E1D, Q33N, G34A, N35G
Stability Index [2]: 72%
Kd [3]: 41.2 nM

B20: hu37D3.v28.E3 (antibody, V domains shown)
VH: B2 VH
VL: B2 VL with E1D, H31D, Q33D
Stability Index [2]: 364%
Kd [3]: 1.1 nM

B24: hu37D3.v28.B7 (antibody, V domains shown)
VH: B2 VH
VL: B2 VL with E1D, Q33D, Y37K
Stability Index [2]: 607%
Kd [3]: 4.1 nM

B25: hu37D3-H9.v31.11 (antibody, V domains shown)
VH: B2 VH
VL: B2 VL with E1D, Q33N, G34A, T36F
Stability Index [2]: 126%
Kd [3]: 22.7 nM
